Measured values published in PMC12365241.
“And” between values parts separate entries of the source, which are not always exact repeats. Equal entries are not always repeated.

Biological target: PorK (Porphyromonas gingivalis (endogenous))
Assay: cryo-EM structure

stoichiometry N: 32 and 33
Substance: PorK (natural protein)
